Patent publication US20120237528A1 (Janssen / Centocor, published 2012)
Where two headings read alike, the source gives them in different places. Each block holds one binder with its values, some of them ahead of it.

Tests used:
[1] = molecular target: T1, recombinant extracellular domain (ECD) of human TF, amino acid 1-219 of the mature chain, C-terminal His6-tag (human, UniProt P13726 33-251); experiment: Biacore
T1 construct: expressed in a mammalian system; used for ELISA and Biacore; biotinylated by NHS-ester for the Fab ELISA; also called His6-TF-ECD1-219; HumanTF1-219

[2] = molecular target: T2, Cynomolgous monkey (cyno) TF-ECD with His Tag (cynomolgus monkey, UniProt P13726 33-251 (human entry)); experiment: Biacore
T2 construct: also called cyno antigen
T2 chain: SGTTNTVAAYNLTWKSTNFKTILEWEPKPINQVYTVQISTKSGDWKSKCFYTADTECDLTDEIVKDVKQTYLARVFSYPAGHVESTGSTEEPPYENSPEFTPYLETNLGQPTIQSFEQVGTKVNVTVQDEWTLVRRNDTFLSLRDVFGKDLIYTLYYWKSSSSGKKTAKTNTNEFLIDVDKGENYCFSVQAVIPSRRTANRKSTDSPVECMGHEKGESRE

[3] = molecular target: T1, recombinant extracellular domain (ECD) …; experiment: Biacore; remark: listed apart in the source
[4] = molecular target: T3, endogenous human tissue factor on MDA-MB-231 breast cancer cells (human, UniProt P13726 33-295); experiment: cell-based or functional assay
[5] = molecular target: Innovin, lyophilized recombinant human tissue factor combined with phospholipids (human, UniProt P13726 33-295, limits assumed); experiment: cell-based or functional assay
[6] = molecular target: T3, endogenous human tissue factor on …; experiment: cell-based or functional assay; remark: listed apart in the source
[7] = molecular target: T1, recombinant extracellular domain (ECD) …; experiment: TF-ECD binding ELISA, chemiluminescent
[8] = molecular target: T2, Cynomolgous monkey (cyno) TF-ECD with …; experiment: TF-ECD binding ELISA, chemiluminescent
[9] = molecular target: T1, recombinant extracellular domain (ECD) …; experiment: direct ELISA, 50 ng/ml
[10] = molecular target: T2, Cynomolgous monkey (cyno) TF-ECD with …; experiment: direct ELISA of supernatants, chemiluminescent
Procedure: A solution Phase direct TF binding ELISA using chemiluminescent detection was used to rank the top binders from human framework adaptation library. The 96 well black maxisorp plates were coated with 100 uL of 4 ug/ml Goat anti human IgG FC diluted in carbonate-bicarbonate buffer, pH 9.4 at 4° C. overnight and then washed thrice with wash buffer (PBS with 0.05% Tween-20 solution) and blocked with […] 1% BSA/10 mM PBS solution for 1 hour followed by a washing as before. Samples or standards were diluted to 50 ng/ml in Assay Buffer (1% BSA in PBS+05% Tween) and 100 ul was added to the assay plate at room temperature for 1 hour with shaking. The plates were washed thrice and 100 ul per well of human or cynomologus TF-ECD with His Tag was added at 100 ng/ml diluted in Assay Buffer and incubate for 2 hours at room temperature. After washing, 100 ul per well of Qiagen peroxidase conjugated penta-his at 1:2000 dilution in assay buffer was added and incubated 1 hour at room temperature with shaking. The BM ChemiLum Substrate (BM Chemilum, POD, Roche) was made freshly at 1:100 dilution into Buffer and 100 ul added to the plates after a final wash. After 10 minutes the plates are read on Perkin Elmer Envision Reader, BM ChemiLum program.
For primary screening of library variants in crude supernatants, samples or controls were normalized to 50 ng/ml in spent FreeStyle 293 HEK media (Gibco) and assayed at single concentration determinations. In the present assay, the concentration of antibody was 5 ng (0.1 ml used) and the TF ECD and the antigen was His6-TF-ECD₁₋₂₁₉ used at a final concentration of 10 ng/well.

B1: M60 (antibody, V domains shown)
VH: EVQLVQSGAEVKKPGESLRISCKGSGYTFITYWIEWVRQMPGKGLEWMGDILPGSGSTNYSPSFQGHVTISADKSISTAYLQWSSLKASDTAMYYCARSGYYGNSGFAYWGQGTLVTVSS
VL: DIVMTQSPLSLPVTPGEPASISCKSSQSLLSSGNQKNYLTWYLQKPGQSPQLLIYWASTRESGVPDRFSGSGSGTDFTLKISRVEAEDVGVYYCQNDYTYPLTFGQGTKLEIK
notes: complete MAb; FR4 is its own entry; also called H22/L4
- Kd [1]: 0.47 nM
- Kd [2]: 1.31 nM
- Kd [3]: 0.47 nM
- IL-8 Induction, Ave % inhibition [4]: 106%
- T½ Max (seconds), coagulation of human plasma [5]: 180 s
- % IL-8 Inhibition [6]: 99.6%
- EC50 [7]: 0.00835 µg/mL
- EC50 [8]: 0.0178 µg/mL

B2: M54 (antibody, V domains shown)
VH: EVQLVQSGAEVKKPGATVKISCKVSGYTFITYWIEWVQQAPGKGLEWMGDILPGSGSTNYNENFKGRVTITADTSTDTAYMELSSLRSEDTAVYYCATSGYYGNSGFAYWGQGTLVTVSS
VL: DIVMTQTPLSLSVTPGQPASISCKSSQSLLSSGNQKNYLTWYLQKPGQPPQLLIYWASTRESGVPDRFSGSGSGTDFTLKISRVEAEDVGVYYCQNDYTYPLTFGQGTKLEIK
notes: complete MAb; FR4 is its own entry; also called H21/L5
- binding result [9]: binds
- binding result [10]: no binding (tested: 50 ng/ml)

B3: M31 (antibody, V domains shown)
VH: EVQLVESGGGLVQPGGSLRLSCAASGYTFITYWIEWVRQAPGKGLVWVSDILPGSGSTNYNENFKGRFTISRDNAKNTLYLQMNSLRAEDTAVYYCARSGYYGNSGFAYWGQGTLVTVSS
VL: DIVMTQTPLSLPVTPGEPASISCKSSQSLLSSGNQKNYLTWYLQKPGQSPQLLIYWASTRESGVPDRFSGSGSGTDFTLKISRVEAEDVGVYYCQNDYTYPLTFGQGTKLEIK
notes: complete MAb; FR4 is its own entry; also called H18/L3
- binding result [9]: binds
- binding result [10]: no binding (tested: 50 ng/ml)

B9: M52 (antibody, V domains shown)
VH: EVQLVQSGAEVKKPGATVKISCKVSGYTFITYWIEWVQQAPGKGLEWMGDILPGSGSTNYNENFKGRVTITADTSTDTAYMELSSLRSEDTAVYYCATSGYYGNSGFAYWGQGTLVTVSS
VL: DIVMTQTPLSLPVTPGEPASISCKSSQSLLSSGNQKNYLTWYLQKPGQSPQLLIYWASTRESGVPDRFSGSGSGTDFTLKISRVEAEDVGVYYCQNDYTYPLTFGQGTKLEIK
notes: complete MAb; FR4 is its own entry; also called H21/L3
- Kd [3]: 3.57 nM
- koff [3]: 0.000264 s⁻¹
- kon [3]: 74000 M⁻¹ s⁻¹
- T½ Max (seconds), coagulation of human plasma [5]: 201 s
- % IL-8 Inhibition [6]: 67.7%
- binding result [10]: no binding (tested: 50 ng/ml)

B10: M51 (antibody, V domains shown)
VH: EVQLVQSGAEVKKPGATVKISCKVSGYTFITYWIEWVQQAPGKGLEWMGDILPGSGSTNYNENFKGRVTITADTSTDTAYMELSSLRSEDTAVYYCATSGYYGNSGFAYWGQGTLVTVSS
VL: DIVMTQSPDSLAVSLGERATINCKSSQSLLSSGNQKNYLTWYQQKPGQPPKLLIYWASTRESGVPDRFSGSGSGTDFTLTISSLQAEDVAVYYCQNDYTYPLTFGQGTKLEIK
notes: complete MAb; FR4 is its own entry; also called H21/L2
- Kd [3]: 2.9 nM
- koff [3]: 0.000235 s⁻¹
- kon [3]: 81100 M⁻¹ s⁻¹
- T½ Max (seconds), coagulation of human plasma [5]: 207 s
- % IL-8 Inhibition [6]: 71.5%
- binding result [10]: no binding (tested: 50 ng/ml)

The next lines start with the values.

- binding result [10]: no binding (tested: 50 ng/ml)
B4: M53 (antibody, V domains shown)
VH: EVQLVQSGAEVKKPGATVKISCKVSGYTFITYWIEWVQQAPGKGLEWMGDILPGSGSTNYNENFKGRVTITADTSTDTAYMELSSLRSEDTAVYYCATSGYYGNSGFAYWGQGTLVTVSS
VL: DIVMTQSPLSLPVTPGEPASISCKSSQSLLSSGNQKNYLTWYLQKPGQSPQLLIYWASTRESGVPDRFSGSGSGTDFTLKISRVEAEDVGVYYCQNDYTYPLTFGQGTKLEIK
notes: complete MAb; FR4 is its own entry; also called H21/L4

- binding result [9]: binds
- binding result [10]: no binding (tested: 50 ng/ml)
B5: M33 (antibody, V domains shown)
VH: EVQLVESGGGLVQPGGSLRLSCAASGYTFITYWIEWVRQAPGKGLVWVSDILPGSGSTNYNENFKGRFTISRDNAKNTLYLQMNSLRAEDTAVYYCARSGYYGNSGFAYWGQGTLVTVSS
VL: DIVMTQTPLSLSVTPGQPASISCKSSQSLLSSGNQKNYLTWYLQKPGQPPQLLIYWASTRESGVPDRFSGSGSGTDFTLKISRVEAEDVGVYYCQNDYTYPLTFGQGTKLEIK
notes: complete MAb; FR4 is its own entry; also called H18/L5

- binding result [9]: binds
- binding result [10]: no binding (tested: 50 ng/ml)
B6: M56 (antibody, V domains shown)
VH: EVQLVQSGAEVKKPGATVKISCKVSGYTFITYWIEWVQQAPGKGLEWMGDILPGSGSTNYNENFKGRVTITADTSTDTAYMELSSLRSEDTAVYYCATSGYYGNSGFAYWGQGTLVTVSS
VL: DIVMTQTPLSSPVTLGQPASISCKSSQSLLSSGNQKNYLTWLQQRPGQPPRLLIYWASTRESGVPDRFSGSGAGTDFTLKISRVEAEDVGVYYCQNDYTYPLTFGQGTKLEIK
notes: complete MAb; FR4 is its own entry; also called H21/L7

- binding result [9]: binds
- binding result [10]: no binding (tested: 50 ng/ml)
B7: M35 (antibody, V domains shown)
VH: EVQLVESGGGLVQPGGSLRLSCAASGYTFITYWIEWVRQAPGKGLVWVSDILPGSGSTNYNENFKGRFTISRDNAKNTLYLQMNSLRAEDTAVYYCARSGYYGNSGFAYWGQGTLVTVSS
VL: DIVMTQTPLSSPVTLGQPASISCKSSQSLLSSGNQKNYLTWLQQRPGQPPRLLIYWASTRESGVPDRFSGSGAGTDFTLKISRVEAEDVGVYYCQNDYTYPLTFGQGTKLEIK
notes: complete MAb; FR4 is its own entry; also called H18/L7

- binding result [9]: binds
- binding result [10]: no binding (tested: 50 ng/ml)
B8: M32 (antibody, V domains shown)
VH: EVQLVESGGGLVQPGGSLRLSCAASGYTFITYWIEWVRQAPGKGLVWVSDILPGSGSTNYNENFKGRFTISRDNAKNTLYLQMNSLRAEDTAVYYCARSGYYGNSGFAYWGQGTLVTVSS
VL: DIVMTQSPLSLPVTPGEPASISCKSSQSLLSSGNQKNYLTWYLQKPGQSPQLLIYWASTRESGVPDRFSGSGSGTDFTLKISRVEAEDVGVYYCQNDYTYPLTFGQGTKLEIK
notes: complete MAb; FR4 is its own entry; also called H18/L4

- binding result [9]: binds
- binding result [10]: no binding (tested: 50 ng/ml)
B11: M30 (antibody, V domains shown)
VH: EVQLVESGGGLVQPGGSLRLSCAASGYTFITYWIEWVRQAPGKGLVWVSDILPGSGSTNYNENFKGRFTISRDNAKNTLYLQMNSLRAEDTAVYYCARSGYYGNSGFAYWGQGTLVTVSS
VL: DIVMTQSPDSLAVSLGERATINCKSSQSLLSSGNQKNYLTWYQQKPGQPPKLLIYWASTRESGVPDRFSGSGSGTDFTLTISSLQAEDVAVYYCQNDYTYPLTFGQGTKLEIK
notes: complete MAb; FR4 is its own entry; also called H18/L2
